Changes are numbered by the printed parent chain.
T1: BoNT/B1 (Clostridium botulinum, UniProt P10844 2-1291)
T1 sequence: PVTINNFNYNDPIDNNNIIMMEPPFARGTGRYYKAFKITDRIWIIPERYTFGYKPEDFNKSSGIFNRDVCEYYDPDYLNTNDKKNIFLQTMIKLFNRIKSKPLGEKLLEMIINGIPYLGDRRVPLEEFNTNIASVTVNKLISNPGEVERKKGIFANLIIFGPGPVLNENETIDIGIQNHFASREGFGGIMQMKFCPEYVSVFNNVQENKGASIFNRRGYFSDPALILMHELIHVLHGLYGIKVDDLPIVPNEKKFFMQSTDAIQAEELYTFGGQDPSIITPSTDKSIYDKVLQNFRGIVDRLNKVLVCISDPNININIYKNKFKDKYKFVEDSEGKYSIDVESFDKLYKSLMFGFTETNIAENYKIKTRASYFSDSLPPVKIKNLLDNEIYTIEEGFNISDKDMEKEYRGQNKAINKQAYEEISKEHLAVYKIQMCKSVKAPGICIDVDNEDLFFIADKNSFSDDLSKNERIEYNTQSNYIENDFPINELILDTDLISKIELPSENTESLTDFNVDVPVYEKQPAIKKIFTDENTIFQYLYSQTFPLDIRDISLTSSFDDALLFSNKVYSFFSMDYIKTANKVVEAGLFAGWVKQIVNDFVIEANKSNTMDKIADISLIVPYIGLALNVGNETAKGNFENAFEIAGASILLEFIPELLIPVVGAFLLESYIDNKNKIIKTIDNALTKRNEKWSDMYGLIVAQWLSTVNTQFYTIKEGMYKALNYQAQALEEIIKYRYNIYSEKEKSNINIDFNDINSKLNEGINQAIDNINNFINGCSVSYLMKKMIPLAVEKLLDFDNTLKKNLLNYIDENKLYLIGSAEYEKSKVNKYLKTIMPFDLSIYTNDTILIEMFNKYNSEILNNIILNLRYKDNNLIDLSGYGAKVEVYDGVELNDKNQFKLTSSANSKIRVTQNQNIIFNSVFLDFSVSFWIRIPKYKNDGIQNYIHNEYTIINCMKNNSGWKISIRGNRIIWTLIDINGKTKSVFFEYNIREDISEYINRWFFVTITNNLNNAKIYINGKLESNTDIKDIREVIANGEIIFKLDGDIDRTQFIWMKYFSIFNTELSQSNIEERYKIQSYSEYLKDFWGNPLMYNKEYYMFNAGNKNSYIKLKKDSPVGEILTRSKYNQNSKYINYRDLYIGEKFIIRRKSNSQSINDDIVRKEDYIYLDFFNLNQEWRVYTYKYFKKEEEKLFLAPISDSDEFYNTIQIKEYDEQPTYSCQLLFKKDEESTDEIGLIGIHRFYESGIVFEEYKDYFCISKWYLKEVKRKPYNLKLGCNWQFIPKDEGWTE

T2: BoNT/B HC (C-terminal domain of the BoNT/B heavy chain, recombinant) (Clostridium botulinum, UniProt P10844 853-1291)
T2 sequence: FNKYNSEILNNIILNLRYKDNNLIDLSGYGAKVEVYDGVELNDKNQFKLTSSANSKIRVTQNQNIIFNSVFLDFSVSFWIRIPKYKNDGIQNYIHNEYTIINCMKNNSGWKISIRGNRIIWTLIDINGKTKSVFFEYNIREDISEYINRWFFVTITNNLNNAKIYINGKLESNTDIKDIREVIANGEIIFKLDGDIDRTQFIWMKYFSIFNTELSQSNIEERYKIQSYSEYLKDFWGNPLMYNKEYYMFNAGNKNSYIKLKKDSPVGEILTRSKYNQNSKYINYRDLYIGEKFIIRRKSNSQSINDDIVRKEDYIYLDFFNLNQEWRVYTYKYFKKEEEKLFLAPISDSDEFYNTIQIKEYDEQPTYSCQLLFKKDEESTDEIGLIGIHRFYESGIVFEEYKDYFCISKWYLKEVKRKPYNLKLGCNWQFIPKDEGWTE

T3: BoNT/F1 (proteolytic BoNT/F) (Clostridium botulinum, UniProt A7GBG3 1-1278)
T3 sequence: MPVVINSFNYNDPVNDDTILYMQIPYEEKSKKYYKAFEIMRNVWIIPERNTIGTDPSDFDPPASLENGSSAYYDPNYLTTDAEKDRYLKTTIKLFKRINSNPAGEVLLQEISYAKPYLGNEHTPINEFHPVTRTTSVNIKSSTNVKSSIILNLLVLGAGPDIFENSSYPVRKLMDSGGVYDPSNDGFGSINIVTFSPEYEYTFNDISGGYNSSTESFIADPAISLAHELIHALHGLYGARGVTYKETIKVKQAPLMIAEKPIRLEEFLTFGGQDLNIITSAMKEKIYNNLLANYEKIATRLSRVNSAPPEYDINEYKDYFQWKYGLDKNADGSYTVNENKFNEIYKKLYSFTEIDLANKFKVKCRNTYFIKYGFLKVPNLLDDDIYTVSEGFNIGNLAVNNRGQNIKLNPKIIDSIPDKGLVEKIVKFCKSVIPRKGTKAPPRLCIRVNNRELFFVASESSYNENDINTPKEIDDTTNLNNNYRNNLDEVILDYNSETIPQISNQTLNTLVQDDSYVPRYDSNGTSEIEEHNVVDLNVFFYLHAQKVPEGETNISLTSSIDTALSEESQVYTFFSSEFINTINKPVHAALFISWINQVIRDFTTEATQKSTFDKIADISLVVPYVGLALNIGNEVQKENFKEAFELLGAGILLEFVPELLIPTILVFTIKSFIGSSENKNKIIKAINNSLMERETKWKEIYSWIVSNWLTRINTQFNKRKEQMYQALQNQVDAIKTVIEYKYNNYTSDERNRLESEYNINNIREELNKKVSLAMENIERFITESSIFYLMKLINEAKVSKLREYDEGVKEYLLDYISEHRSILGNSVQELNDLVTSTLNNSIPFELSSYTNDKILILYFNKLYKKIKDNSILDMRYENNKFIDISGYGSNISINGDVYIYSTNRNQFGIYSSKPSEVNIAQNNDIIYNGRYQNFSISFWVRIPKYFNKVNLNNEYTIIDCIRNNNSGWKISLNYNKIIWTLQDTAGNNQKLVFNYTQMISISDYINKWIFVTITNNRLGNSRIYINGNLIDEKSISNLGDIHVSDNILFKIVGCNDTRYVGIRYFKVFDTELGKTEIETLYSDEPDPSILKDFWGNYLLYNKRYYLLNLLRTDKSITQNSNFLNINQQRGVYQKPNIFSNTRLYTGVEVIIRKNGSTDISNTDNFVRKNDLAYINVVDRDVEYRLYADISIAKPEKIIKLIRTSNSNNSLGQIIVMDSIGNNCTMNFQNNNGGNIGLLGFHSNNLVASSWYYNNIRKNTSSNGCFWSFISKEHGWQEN

B1: 26G5 scFv (scFv)
scFv: EVQLQESGPGLAKPSQTLSLTCSVTGYSITSDYWNWIRKFPGNKLEYMGYISYSGSTYYNPSLKSRISITRDTSKNQYYLQLNSVTTEDTATYYCARSFYDGYLYFDYWGQGTTVTVSSVDLKSGGSTSGSGKPGSGEGSSGSAREIVLTQSPAILSASPGEKVTMTCSASSSVSYMYWYQQKPGSSPRLLIYDTSNLASGVPARFSGSGSGTSYSLTISRVEAEDAATYYCQQWSSYPPTFGDGTRLEIK
notes: mouse
B2: 26D9 scFv (scFv)
scFv: DVQLQESGAELVKPGASVKLSCKASGFTFTDYWMHWVKQRPGQGLEWIGMIHPYNGDNNYHEKFKSKATLTVDKSSSTAYMQLSSLTTEDSAVYYCVRNDYDPYYYALDYWGQGTSLTVSAVDLKSGGSTSGSGKPGSGEGSSGSARQIVLTQSPAIMSASPGEKVTMSCRASSSVSYVYWYQQKPGSSPKPWIYRTSNLASGVPVRFSGSGSGTSYSLTISRVEAEDAATYYCQQWSSYPPTFGGGTKLEIK
notes: mouse
B3: 26E6 scFv (scFv)
scFv: EVQLQQSGPELVKPGASVKISCKASGYTFADYYINWVKQSHGKSLEWIGDFNPNNGDHSYNQKFKDKATLTVDESSNTAYMELRSLTSEDSAVYYCTREFYYYFDVWGTGTTVTVSSVDLKSGGSTSGSGKPGSGEGSSGSARDIVMSQSPLSLPVSLGDQAFISCRFSQSIVHSNGNTYLEWYLQKPGQSPKLLIYKVSNRFSGVPDRFSGSGSGTDFTLKISRVEAEDLGVYYCFQGSHVPYTFGGGTKLEIK
notes: mouse
B4: 26C2 scFv (scFv)
scFv: QVQLKQSGPELVKPGASVKLSCKASGYTFTSYDINWVKQRPGQGLEWIGWIYPRDDITKYNEKFKDKATLTVDTSSSTAYMELHSLTSEDSAVYFCARGDYYGSLDYWGQGTTLTVSSVDLKSGGSTSGSGKPGSGEGSSGSARQIVLTQSPAIMSASPGEKVTMTCSASSSVSYMHWYQQKSSTSPKLWIYDTSKLASGVPGRFSGSGSGNSYSLTISSMEAEDVATYYCFQGSGYPLTFGAGTKLEIK
notes: mouse
B5: 26B2 scFv (scFv)
scFv: DVQLQESGPELVKPGASVKISCKASGYTFADYYINWVKQSHGKSLEWIGDFNPNNGDHSYNQKFKDKATLTVDESSNTAYMELRSLTSEDSAVYYCTREFYYYFDVWGTGTSVTVSSVDLKSGGSTSGSGKPGSGEGSSGSARDIEMTQTPAIMSASPGEKVTMTCSASSSVSSRYLHWYQQKSGASPKLWIYGTSNLASGVPARFSGSGSGTSYSLTISNVEAEDAATYYCQQYHSDPLTFGAGTKLEIK
notes: mouse
B6: 28C11 scFv (scFv, V domains shown)
VH: EVQLQESGGDLVKPGGSLKLSCAASGFTFSYYGMSWVRQTPDKRLEWVATISSGGTYTYYPDSVKGRFTISRDNAKNTLYLQMSSLSSEDTAMYYCARRRSYDSVYWYFDVWGAGTSVTVSS
VL: DIVLTQSPAITAASLGQKVTITCSASSSGSYIHWYQQKSGTSPKLLIYRTSNLASGVPSRFSGSGSGTFYSLTISSVEAEDAADYFCHQWSSYPTFGGGTKLEIK
B7: 29A2 scFv (scFv, V domains shown)
VH: EVQLLETGGDLVKPGGSLKLSCAASGFTFSYYGMSWVRQTPDKRLEWVATISSGGSYTYYPDSVKGRFTISRDNAKNTLYLQMSSLKSEDTAMYYCARRRVYYGSSYEDYWGQGTTLTVSS
VL: EIVLTQSPALMSASPGEKVTMTCSASSSVSYMYWYQQKPRSSPKPWIYLTSNLASGVPARFSGSGSGTSYSLTISSMEAEDAATYYCQQWSSNPYTFGGGTKLELK
B8: 6A2M IgG (antibody, V domains shown)
VH: EVQLQQSGAELVRPGTSVKLSCKSSGYTFTSDWMHWVIQRPGQGLEWIGVIDPSDSYTNYNQKFKGKATLTVDTSSSTAYMHLSSLTSEDSAVYYCARREGHYYGKAMDYWGQGTSVTVSS
VL: DIVMSQSPASLAVSLGQRATISCRASESVDYDGDSYMNWYQQKPGQPPKLLIYAASNLESGIPARFSGSGSGTDFTLNIHPVEEEDAATYYCLQSNEAPWTFGGGTKLEIK
notes: IgG converted from scFv
B9: 6A3M IgG (antibody, V domains shown)
VH: EVQLQQSGAELVKPGASVKLSCKASGYTFTSYWMHWIKQRPGQGLEWIGVIDPSDSYTNYNQKFKGKATLTVDTSSSTAYMQLSSLTSEDSAVYYCATGGNGFFDYWGQGTTLTVSS
VL: B8 VL with M4L, S5T, I110L
notes: IgG converted from scFv
B10: 6A4M IgG (antibody, V domains shown)
VH: EVQLQQSGAELVRPGTSVKLSCKASGYTFTSYWMHWVKQRPGQGLEWIGVIDPSDSYTNYNQKFKGKATLTVDTSSSTAYMQLSSLASEDSAVYYCARYPGNRAMDYWGQGTSVTVSS
VL: B8 VL with M4L, S5T
notes: IgG converted from scFv
B11: 6A8M IgG (antibody, V domains shown)
VH: QVQLKESGPGLVKPSQTVSLTCTVTGYSITNGNHWWNWIRQVSGSKLEWIGYISSSGYTDINPSLKSRISITRDTSKNQLFLQLNSVTTEDIATYYCARDDGYYEALDYWGQGTSVTVSS
VL: DIVMSQSPAIMSASPGEKVTLTCSASSSVSSNYLYWYQQKPGSSPKLWIYSTSNLASGVPARFSGSGSGTSYSLTISRVEAEDAATYYCQQWSSNPPTFGGGTKLEIK
notes: IgG converted from scFv

molecular target: T1, BoNT/B1; experiment: yeast scFv FACS

Row | Binder | Kd
1 | B1 | 3.91 nM
2 | B2 | 0.582 nM
3 | B3 | 4.85 nM
4 | B4 | 23.7 nM
5 | B5 | 0.276 nM

molecular target: T2, BoNT/B HC (C-terminal domain of the …); experiment: yeast scFv FACS

Row | Binder | Kd
6 | B1 | 1.79 nM
7 | B2 | 0.089 nM
8 | B3 | 0.889 nM
9 | B4 | 7.76 nM
10 | B5 | 0.086 nM

molecular target: T3, BoNT/F1 (proteolytic BoNT/F); experiment: yeast scFv FACS

Row | Binder | Kd
11 | B6 | 0.12 nM
12 | B7 | 0.99 nM

molecular target: T3, BoNT/F1 (proteolytic BoNT/F); experiment: yeast scFv FACS; remark: another data set of the same source

Row | Binder | Kd
13 | B6 | 0.12 nM
14 | B7 | 0.99 nM

molecular target: BoNT/A light chain (recombinant) (Clostridium botulinum, UniProt P0DPI0 1-448); experiment: KinExA, IgG

Row | Binder | Kd
15 | B8 | 45 nM
16 | B9 | 10 nM
17 | B10 | 21 nM
18 | B11 | 4.99 nM

molecular target: BoNT/A1 holotoxin (Hall hyper) (Clostridium botulinum, UniProt P0DPI0 2-1296); experiment: KinExA, IgG

Row | Binder | Kd
19 | B11 | 0.852 nM

From patent US20220089784A1 (University of California, published 2022)
